The target in the assay is 4D5 CAR on NK92-4D5-Canada cells. Description: flow cytometry on NK92-4D5-Canada cells, 2μg 5D1 + BV421 goat anti-mouse.

B1: 靶向4D5的鼠源单克隆抗体5D1 (antibody, V domains shown)
VH: QVQLEQSGAEFVRPGALVRLSCKASGFNIKDYYIHWVKQRPEQGLEWIGWIYPENDDTIYDPKFQGKASLTADTSSNTAYLQLSSLTSEDSAVYFCVRSGSDSSFDYWGQGTTLTVSS
VL: DIVMTQSTASLAVSLGQRATISCRASESVDSYDNSFMHWFQQKPGQPPKLLIYLASNLESGVPARFSGSGSRTDFTLTIDPVEADDAATYYCQQNNEDPFTFGSGTKLEIKR
B1: the 阳性细胞数在总细胞中占比 was 60.2%.

Source of the values: patent CN111606996A.
